B1: H183/L072 VH P100eI (antibody, name in Kabat numbering, V domains shown)
VH: QVQLVESGGGLVQPGRSLRLSCAASGFTFSNAWMHWVRQAPGKGLEWVAQIKDKGNAYAAYYAPSVKGRFTISRDDSKNSIYLQMNSLKTEDTAVYYCHYVHYASASTVLIAFGVDAWGQGTTVTVSS
VL: DIVMTQSPLSLPVTPGEPASISCQASQELVHMNRNTYLHWYQQKPGQAPRLLIYKVSNRFPGVPDRFSGSGSGTDFTLKISRVEAEDVGVYYCAQGTSVPFTFGQGTKLEIK
B2: H183/L072 VH Q50I (antibody, name in Kabat numbering, V domains shown)
VH: B1 VH with Q50I, I111P
VL: B1 VL
B3: H183/L072 VH Q50K (antibody, name in Kabat numbering, V domains shown)
VH: B1 VH with Q50K, I111P
VL: B1 VL
B4: H183/L072 VH S30P (antibody, name in Kabat numbering, V domains shown)
VH: B1 VH with S30P, I111P
VL: B1 VL
B5: H183/L072 VH P100eL (antibody, name in Kabat numbering, V domains shown)
VH: B1 VH with I111L
VL: B1 VL
B6: H183/L072 VH S62L (antibody, name in Kabat numbering, V domains shown)
VH: B1 VH with S65L, I111P
VL: B1 VL
B7: H183/L072 VH Q50W (antibody, name in Kabat numbering, V domains shown)
VH: B1 VH with Q50W, I111P
VL: B1 VL
B8: H183/L072 VH S30M (antibody, name in Kabat numbering, V domains shown)
VH: B1 VH with S30M, I111P
VL: B1 VL
B9: H183/L072 VH Q50V (antibody, name in Kabat numbering, V domains shown)
VH: B1 VH with Q50V, I111P
VL: B1 VL
B10: H183/L072 VH S30Y (antibody, name in Kabat numbering, V domains shown)
VH: B1 VH with S30Y, I111P
VL: B1 VL
B11: H183/L072 VH Q50P (antibody, name in Kabat numbering, V domains shown)
VH: B1 VH with Q50P, I111P
VL: B1 VL
B12: H183/L072 VH Q50T (antibody, name in Kabat numbering, V domains shown)
VH: B1 VH with Q50T, I111P
VL: B1 VL
B13: H183/L072 VH S62A (antibody, name in Kabat numbering, V domains shown)
VH: B1 VH with S65A, I111P
VL: B1 VL
B14: H183/L072 VH Q50S (antibody, name in Kabat numbering, V domains shown)
VH: B1 VH with Q50S, I111P
VL: B1 VL
B15: H183/L072 VH Q50M (antibody, name in Kabat numbering, V domains shown)
VH: B1 VH with Q50M, I111P
VL: B1 VL
B16: H183/L072 VH Q50Y (antibody, name in Kabat numbering, V domains shown)
VH: B1 VH with Q50Y, I111P
VL: B1 VL
B17: H183/L072 VH Q50E (antibody, name in Kabat numbering, V domains shown)
VH: B1 VH with Q50E, I111P
VL: B1 VL
B18: H183/L072 VH Q50G (antibody, name in Kabat numbering, V domains shown)
VH: B1 VH with Q50G, I111P
VL: B1 VL
B19: H183/L072 VH S30V (antibody, name in Kabat numbering, V domains shown)
VH: B1 VH with S30V, I111P
VL: B1 VL
B20: H183/L072 VH S62I (antibody, name in Kabat numbering, V domains shown)
VH: B1 VH with S65I, I111P
VL: B1 VL
B21: H183/L072 VH Q50N (antibody, name in Kabat numbering, V domains shown)
VH: B1 VH with Q50N, I111P
VL: B1 VL
B22: H183/L072 VH Q50L (antibody, name in Kabat numbering, V domains shown)
VH: B1 VH with Q50L, I111P
VL: B1 VL
B23: H183/L072 VH Q50H (antibody, name in Kabat numbering, V domains shown)
VH: B1 VH with Q50H, I111P
VL: B1 VL
B24: H183/L072 VH S30H (antibody, name in Kabat numbering, V domains shown)
VH: B1 VH with S30H, I111P
VL: B1 VL
B25: H183/L072 VH S30W (antibody, name in Kabat numbering, V domains shown)
VH: B1 VH with S30W, I111P
VL: B1 VL
B26: H183/L072 VH Q50D (antibody, name in Kabat numbering, V domains shown)
VH: B1 VH with Q50D, I111P
VL: B1 VL
B27: H183/L072 VH P100eM (antibody, name in Kabat numbering, V domains shown)
VH: B1 VH with I111M
VL: B1 VL
B28: H183/L072 VH S30L (antibody, name in Kabat numbering, V domains shown)
VH: B1 VH with S30L, I111P
VL: B1 VL
B29: H183/L072 VH S30A (antibody, name in Kabat numbering, V domains shown)
VH: B1 VH with S30A, I111P
VL: B1 VL
B30: H183/L072 VH S30D (antibody, name in Kabat numbering, V domains shown)
VH: B1 VH with S30D, I111P
VL: B1 VL
B31: H183/L072 VH S30T (antibody, name in Kabat numbering, V domains shown)
VH: B1 VH with S30T, I111P
VL: B1 VL
B32: H183/L072 VH S30K (antibody, name in Kabat numbering, V domains shown)
VH: B1 VH with S30K, I111P
VL: B1 VL
B33: H183/L072 VH S30E (antibody, name in Kabat numbering, V domains shown)
VH: B1 VH with S30E, I111P
VL: B1 VL
B34: H183/L072 VH S30G (antibody, name in Kabat numbering, V domains shown)
VH: B1 VH with S30G, I111P
VL: B1 VL
B35: H183/L072 VH Q50R (antibody, name in Kabat numbering, V domains shown)
VH: B1 VH with Q50R, I111P
VL: B1 VL
B36: H183/L072 VH S30I (antibody, name in Kabat numbering, V domains shown)
VH: B1 VH with S30I, I111P
VL: B1 VL
B37: H183/L072 VH Q50F (antibody, name in Kabat numbering, V domains shown)
VH: B1 VH with Q50F, I111P
VL: B1 VL
B38: H183/L072 VH S30Q (antibody, name in Kabat numbering, V domains shown)
VH: B1 VH with S30Q, I111P
VL: B1 VL
B39: H183/L072 VH S30R (antibody, name in Kabat numbering, V domains shown)
VH: B1 VH with S30R, I111P
VL: B1 VL
B40: H183/L072 VH S30N (antibody, name in Kabat numbering, V domains shown)
VH: B1 VH with S30N, I111P
VL: B1 VL
B41: H183/L072 VH S30F (antibody, name in Kabat numbering, V domains shown)
VH: B1 VH with S30F, I111P
VL: B1 VL
B42: H183/L072 VH Q50A (antibody, name in Kabat numbering, V domains shown)
VH: B1 VH with Q50A, I111P
VL: B1 VL

Substitutions are numbered along the chain they refer to. In names and notes the source's numbering stands.

Here are results for 42 molecules from patent US20210388087A1 (Chugai, published 2021).

The target of the assay is T1, Human CD3eg linker (human).
T1 construct: Single chain: epsilon and gamma subunits of human CD3 joined by a 29-mer linker, Flag-tag at the C-terminus; also called recombinant human CD3
T1 chain: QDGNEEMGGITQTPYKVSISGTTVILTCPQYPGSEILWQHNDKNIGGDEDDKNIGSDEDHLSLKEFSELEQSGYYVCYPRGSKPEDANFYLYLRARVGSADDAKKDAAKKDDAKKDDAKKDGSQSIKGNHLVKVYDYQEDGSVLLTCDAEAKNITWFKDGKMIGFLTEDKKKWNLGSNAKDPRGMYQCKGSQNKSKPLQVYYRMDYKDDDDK
The assay can be described thus: Biacore SPR, vs template H183/L072. For orientation: In SPR one partner is held on a chip, and binding of the other changes the refractive index at the surface.
In the case of B1, the “fold change of affinity” value came out at 1.4 fold.

In the case of B2, the “fold change of affinity” value turned out to be 0.4 fold.

On to B3, for which the “fold change of affinity” value was 0 fold.

Consider B4, for which the “fold change of affinity” value worked out at 0.3 fold.

With B5, the “fold change of affinity” value was determined as 1.3 fold.

For B6, the “fold change of affinity” value was 1.5 fold.

As to B7, the “fold change of affinity” value is 0 fold.

B8: the “fold change of affinity” value was found to be 0.7 fold.

For the molecule B9, the “fold change of affinity” value amounted to 0 fold.

For the molecule B10, the “fold change of affinity” value stood at 1.2 fold.

For the molecule B11, the “fold change of affinity” value was 0 fold.

Take B12: the “fold change of affinity” value is 0 fold.

With B13, the “fold change of affinity” value worked out at 1.4 fold.

B14: the “fold change of affinity” value was found to be 0 fold.

B15: the “fold change of affinity” value was determined as 0.1 fold.

As for B16, the “fold change of affinity” value was found to be 0.9 fold.

Consider B17, for which the “fold change of affinity” value is 0 fold.

As to B18, the “fold change of affinity” value is 0 fold.

Take B19: the “fold change of affinity” value was 0.8 fold.

For B20, the “fold change of affinity” value was 1.4 fold.

In the case of B21, the “fold change of affinity” value was determined as 0 fold.

For B22, the “fold change of affinity” value is 0.2 fold.

As for B23, the “fold change of affinity” value came out at 0.3 fold.

Consider B24, for which the “fold change of affinity” value is 1 fold.

For the molecule B25, the “fold change of affinity” value was 1.3 fold.

With B26, the “fold change of affinity” value worked out at 0 fold.

In the case of B27, the “fold change of affinity” value was 1.8 fold.

In the case of B28, the “fold change of affinity” value turned out to be 0.8 fold.

On to B29, for which the “fold change of affinity” value was 0.8 fold.

Consider B30, for which the “fold change of affinity” value is 1 fold.

In the case of B31, the “fold change of affinity” value was 1.1 fold.

On to B32, for which the “fold change of affinity” value was found to be 0.9 fold.

With B33, the “fold change of affinity” value is 0.6 fold.

Consider B34, for which the “fold change of affinity” value is 1.1 fold.

As to B35, the “fold change of affinity” value was 0 fold.

As for B36, the “fold change of affinity” value turned out to be 0.8 fold.

Take B37: the “fold change of affinity” value was 0.3 fold.

As to B38, the “fold change of affinity” value was found to be 0.8 fold.

For B39, the “fold change of affinity” value was determined as 0.8 fold.

On to B40, for which the “fold change of affinity” value was 0.7 fold.

Regarding B41, the “fold change of affinity” value came to 1 fold.

Regarding B42, the “fold change of affinity” value is 0 fold.
